Laboratory results reported in PMC4090178, “Structural and Biochemical Characterization of Human PR70 in Isolation and in Complex with the Scaffolding Subunit of Protein Phosphatase 2A” (PLoS ONE, 2014).

T1: PR70 (130–504) (human, UniProt Q9Y5P8 130-504)
T1 construct: PR70 (B''β), regulatory B'' subunit of PP2A, human, product of PPP2R3B; residues 130–504; source: E. coli BL21(DE3), purified (IMAC, TEV cleavage, gel filtration); not shown: His tag, N-terminal, cleaved
T1 sequence (looked up): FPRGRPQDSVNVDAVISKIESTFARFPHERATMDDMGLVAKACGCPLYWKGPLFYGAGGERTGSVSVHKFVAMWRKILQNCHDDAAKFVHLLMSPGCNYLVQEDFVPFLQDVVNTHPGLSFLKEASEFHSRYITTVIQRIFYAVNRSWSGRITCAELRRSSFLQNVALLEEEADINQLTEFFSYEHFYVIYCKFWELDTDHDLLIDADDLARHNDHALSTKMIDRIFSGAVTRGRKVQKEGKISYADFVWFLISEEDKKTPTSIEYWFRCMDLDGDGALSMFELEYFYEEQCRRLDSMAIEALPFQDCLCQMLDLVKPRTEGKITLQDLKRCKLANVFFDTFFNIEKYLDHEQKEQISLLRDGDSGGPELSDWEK

T2: PR70 (105–575) (human, UniProt Q9Y5P8 105-575)
T2 construct: PR70 (B''β), regulatory B'' subunit of PP2A, human, product of PPP2R3B; source: E. coli BL21(DE3), purified (IMAC, TEV cleavage, gel filtration); not shown: His tag, N-terminal, cleaved
T2 sequence (looked up): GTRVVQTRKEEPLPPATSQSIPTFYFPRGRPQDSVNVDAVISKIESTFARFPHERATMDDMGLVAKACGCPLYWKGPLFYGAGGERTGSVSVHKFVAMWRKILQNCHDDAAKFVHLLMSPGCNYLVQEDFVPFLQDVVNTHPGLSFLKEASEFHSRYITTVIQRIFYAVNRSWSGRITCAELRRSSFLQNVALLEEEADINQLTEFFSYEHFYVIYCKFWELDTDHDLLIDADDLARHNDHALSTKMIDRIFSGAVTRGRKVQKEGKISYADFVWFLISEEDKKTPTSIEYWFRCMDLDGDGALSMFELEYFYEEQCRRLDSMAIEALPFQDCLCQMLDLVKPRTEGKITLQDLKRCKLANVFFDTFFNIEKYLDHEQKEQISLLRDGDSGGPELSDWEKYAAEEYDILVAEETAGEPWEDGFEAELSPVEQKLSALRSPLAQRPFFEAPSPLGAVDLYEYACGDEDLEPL

T3: PR70 core fragment (residues 130–483) (human, UniProt Q9Y5P8 130-483)
T3 construct: PR70 (B''β), regulatory B'' subunit of PP2A, human, product of PPP2R3B; The crystal (PDB 4MEW) was of the selenomethionine-labelled protein alone; the model holds residues 134–481; also called PR70 core domain; source: E. coli BL21(DE3), purified (IMAC, TEV cleavage, gel filtration); not shown: His tag, N-terminal, cleaved
T3 sequence (looked up): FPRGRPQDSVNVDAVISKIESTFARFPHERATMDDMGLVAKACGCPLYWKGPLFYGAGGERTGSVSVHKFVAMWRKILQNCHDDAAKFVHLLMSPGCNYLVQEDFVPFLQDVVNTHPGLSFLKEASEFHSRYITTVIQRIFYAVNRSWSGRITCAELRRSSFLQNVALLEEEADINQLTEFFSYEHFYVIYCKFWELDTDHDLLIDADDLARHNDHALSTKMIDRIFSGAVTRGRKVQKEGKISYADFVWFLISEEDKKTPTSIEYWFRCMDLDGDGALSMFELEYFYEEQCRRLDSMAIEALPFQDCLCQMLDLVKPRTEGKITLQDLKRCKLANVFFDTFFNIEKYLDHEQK

T4: PR70 (25–575) (human, UniProt Q9Y5P8 25-575)
T4 construct: PR70 (B''β), regulatory B'' subunit of PP2A, human, product of PPP2R3B; also called B''/PR70; source: E. coli BL21(DE3), purified (IMAC, TEV cleavage, gel filtration); not shown: His tag, N-terminal, cleaved
T4 sequence (looked up): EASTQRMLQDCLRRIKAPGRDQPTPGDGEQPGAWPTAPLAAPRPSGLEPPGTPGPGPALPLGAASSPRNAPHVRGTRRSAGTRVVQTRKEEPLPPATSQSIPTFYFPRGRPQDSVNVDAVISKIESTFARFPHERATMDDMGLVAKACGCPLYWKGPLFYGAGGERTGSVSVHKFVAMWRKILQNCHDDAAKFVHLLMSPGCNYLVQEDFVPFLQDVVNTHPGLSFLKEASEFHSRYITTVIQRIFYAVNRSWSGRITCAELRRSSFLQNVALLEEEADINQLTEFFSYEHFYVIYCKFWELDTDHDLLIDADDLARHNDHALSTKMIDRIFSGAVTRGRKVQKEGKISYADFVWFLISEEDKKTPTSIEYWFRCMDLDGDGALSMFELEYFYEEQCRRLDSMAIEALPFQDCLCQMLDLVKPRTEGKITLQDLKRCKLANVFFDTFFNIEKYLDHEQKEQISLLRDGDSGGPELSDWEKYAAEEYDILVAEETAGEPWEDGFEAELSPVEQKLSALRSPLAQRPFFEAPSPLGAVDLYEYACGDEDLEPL


How the values were obtained:
Details in all cases: both partners purified
A α (HEAT1–15) = target: T5, A α (HEAT1–15) (UniProt P30153 1-589); assay: SAXS; complex purified on Superdex 200 in 20 mM Tris pH 7.5, 20 mM NaCl, 2 mM CaCl2, 0.5 mM TCEP, 1% glycerol at 15°C just prior to SAXS; 1.5 mg/ml
T5 construct: PP2A scaffolding subunit A, α isoform, product of PPP2R1A; HEAT repeats 1–15; calculated molecular weight 65.3 kD; also called full length A-subunit; scaffolding A subunit; source: E. coli BL21(DE3), purified (IMAC, TEV cleavage, gel filtration); not shown: His tag, N-terminal, cleaved

PR70 (130–504) = target: T1, PR70 (130–504); assay: ITC; B''-constructs at 20–40 µM in the cell titrated with 200–300 µM Aα or Aβ constructs; 15°C; 20 mM Tris pH 7.5, 200 mM NaCl, 2 mM CaCl2; 1:1 binding model
PR70 (105–575) = target: T2, PR70 (105–575); assay: as above
[1] = target: T3, PR70 core fragment (residues 130–483); assay: as above
PR70 (25–575) = target: T4, PR70 (25–575); assay: as above

| Binder | binding result (A α (HEAT1–15)) | Kd (PR70 (130–504)) [nM] | Kd (PR70 (105–575)) [nM] | dH (PR70 (105–575)) [kcal/mol] | stoichiometry N (PR70 (105–575)) | Kd [1] [nM] | Kd (PR70 (25–575)) [nM] | dH (PR70 (25–575)) [kcal/mol] | stoichiometry N (PR70 (25–575)) |
| --- | --- | --- | --- | --- | --- | --- | --- | --- | --- |
| PR70 (130–575) (domain or fragment, human, UniProt Q9Y5P8 130-575, looked up, PR70 (B''β), regulatory B'' subunit of PP2A, human, product of PPP2R3B; Used only for SAXS of the complex with the A-subunit; source: E. coli BL21(DE3), purified (IMAC, TEV cleavage, gel filtration); not shown: His tag, N-terminal, cleaved) FPRGRPQDSVNVDAVISKIESTFARFPHERATMDDMGLVAKACGCPLYWKGPLFYGAGGERTGSVSVHKFVAMWRKILQNCHDDAAKFVHLLMSPGCNYLVQEDFVPFLQDVVNTHPGLSFLKEASEFHSRYITTVIQRIFYAVNRSWSGRITCAELRRSSFLQNVALLEEEADINQLTEFFSYEHFYVIYCKFWELDTDHDLLIDADDLARHNDHALSTKMIDRIFSGAVTRGRKVQKEGKISYADFVWFLISEEDKKTPTSIEYWFRCMDLDGDGALSMFELEYFYEEQCRRLDSMAIEALPFQDCLCQMLDLVKPRTEGKITLQDLKRCKLANVFFDTFFNIEKYLDHEQKEQISLLRDGDSGGPELSDWEKYAAEEYDILVAEETAGEPWEDGFEAELSPVEQKLSALRSPLAQRPFFEAPSPLGAVDLYEYACGDEDLEPL | binds | – | – | – | – | – | – | – | – |
| A α (HEAT1–8) (domain or fragment, UniProt P30153 1-321, looked up, PP2A scaffolding subunit A, α isoform, product of PPP2R1A; HEAT repeats 1–8 (C-terminal repeats deleted); also called construct spanning HEAT repeats 1–8; source: E. coli BL21(DE3), purified (IMAC, TEV cleavage, gel filtration); not shown: His tag, N-terminal, cleaved) MAAADGDDSLYPIAVLIDELRNEDVQLRLNSIKKLSTIALALGVERTRSELLPFLTDTIYDEDEVLLALAEQLGTFTTLVGGPEYVHCLLPPLESLATVEETVVRDKAVESLRAISHEHSPSDLEAHFVPLVKRLAGGDWFTSRTSACGLFSVCYPRVSSAVKAELRQYFRNLCSDDTPMVRRAAASKLGEFAKVLELDNVKSEIIPMFSNLASDEQDSVRLLAVEACVNIAQLLPQEDLEALVMPTLRQAAEDKSWRVRYMVADKFTELQKAVGPEITKTDLVPAFQNLMKDCEAEVRAAASHKVKEFCENLSADCRENV | – | > 100000 | 158 ± 22 | -20.3 ± 0.2 | 0.99 ± 0.01 | > 100000 | 223 ± 21 | -19.1 ± 0.4 | 0.93 ± 0.02 |
